According to patent publication US20170342144A1 (Sanofi, published 2017):
Substitutions are numbered along the chain they refer to. Blank lines part the entries; values can stand above or below the binder they belong to.

Legend:
Test in all cases: Biacore off-rate vs wt GC1008, 50 nM
human TGFβ3 = molecular target: T1, human TGFβ3 (human, UniProt P10600 301-412)
T1 sequence: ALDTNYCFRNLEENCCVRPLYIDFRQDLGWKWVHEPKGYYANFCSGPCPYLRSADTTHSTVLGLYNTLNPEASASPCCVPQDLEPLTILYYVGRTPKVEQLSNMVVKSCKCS
From the text: (§1) Plasmids encoding either the GC1008 heavy chain or light chain were used as a template in PCR-based mutagenesis reactions. Mutations to the encoding DNA were made to create 155 single amino acid substitutions of the encoded heavy chain amino acid sequence and one single amino acid substitution of the encoded light chain amino acid sequence. A QuikChange® Lightning Site-Directed Mutagenesis kit (Agilent Technologies, Santa Clara Calif.) was used according to the manufacturer's instructions to create DNA mutations using a set of forward and reverse primers, either designed for a specific amino acid or for all 20 amino acids with a degenerate codon (NNK). After sequencing confirmation, identified mutant DNA was paired with a wild-type light or heavy chain DNA for transfection into an Expi293F™ host cell suspension (Life Techonologies Corp., Grand Island, N.Y.). At 4 days post-transfection, conditioned media (1 mL) was harvested and purified using a 1 mL Protein A PhyTip® column (PhyNexus, Inc., San Jose, Calif.) and a PureSpeed™ 12-channel pipette (Rainin Instrument LLC, Oakland, Calif.). Purified variant antibody samples were analyzed in duplicate on a Biacore® 3000 (GE Healthcare) at 50 nM concentrations, using the 100 RU level TGFβ1, 2, and 3 immobilized surfaces. The off-rate (kd) of the variants was divided by the kd of the wild-type control to obtain the fold change in the kd. […] A heat map was generated to visualize the results. Variants that completely lost affinity for TGFβ were shown in red without numbers.

human TGFβ1 = molecular target: T2, human TGFβ1 (human, UniProt P01137 279-390)
T2 construct: also called TGFβ1 homodimer
T2 sequence (P01137 279-390 limits assumed): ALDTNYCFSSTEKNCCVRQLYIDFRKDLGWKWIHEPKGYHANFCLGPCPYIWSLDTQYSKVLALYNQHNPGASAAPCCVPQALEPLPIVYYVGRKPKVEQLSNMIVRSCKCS
From the text: as §1

human TGFβ2 = molecular target: T3, human TGFβ2 (human, UniProt P61812 303-414)
T3 construct: also called TGFβ2 homodimer
T3 sequence: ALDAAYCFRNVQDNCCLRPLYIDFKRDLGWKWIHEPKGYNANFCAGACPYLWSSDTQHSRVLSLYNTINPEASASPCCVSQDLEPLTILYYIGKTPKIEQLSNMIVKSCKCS
From the text: as §1

- kd var/kd wt (human TGFβ3): 0.8
- kd var/kd wt (human TGFβ1): 1.1
- kd var/kd wt (human TGFβ2): 1.3
B1: D56C (antibody, V domains shown)
VH: QVQLVQSGAEVKKPGSSVKVSCKASGYTFSSNVISWVRQAPGQGLEWMGGVIPIVCIANYAQRFKGRVTITADESTSTTYMELSSLRSEDTAVYYCASTLGLVLDAMDYWGQGTLVTVSS
VL: ETVLTQSPGTLSLSPGERATLSCRASQSLGSSYLAWYQQKPGQAPRLLIYGASSRAPGIPDRFSGSGSGTDFTLTISRLEPEDFAVYYCQQYADSPITFGQGTRLEIK
notes: GC1008 IgG4 variant

- kd var/kd wt (human TGFβ1): 0.9
- kd var/kd wt (human TGFβ2): 0.8
B2: S30H (antibody, V domains shown)
VH: B1 VH with S30H, C56D
VL: B1 VL
notes: GC1008 IgG4 variant

- kd var/kd wt (human TGFβ3): 2.1
- kd var/kd wt (human TGFβ2): 1.9
B3: I52T (antibody, V domains shown)
VH: B1 VH with I52T, C56D
VL: B1 VL
notes: GC1008 IgG4 variant

- kd var/kd wt (human TGFβ3): 1.5
- kd var/kd wt (human TGFβ2): 1.3
B4: I54Y (antibody, V domains shown)
VH: B1 VH with I54Y, C56D
VL: B1 VL
notes: GC1008 IgG4 variant

- kd var/kd wt (human TGFβ3): 1.3
- kd var/kd wt (human TGFβ1): 1.6
- kd var/kd wt (human TGFβ2): 1.5
B5: D56V (antibody, V domains shown)
VH: B1 VH with C56V
VL: B1 VL
notes: GC1008 IgG4 variant

- kd var/kd wt (human TGFβ3): 0.9
- kd var/kd wt (human TGFβ1): 1
- kd var/kd wt (human TGFβ2): 1.2
B6: D56E (antibody, V domains shown)
VH: B1 VH with C56E
VL: B1 VL
notes: GC1008 IgG4 variant

- kd var/kd wt (human TGFβ3): 0.8
- kd var/kd wt (human TGFβ1): 1
- kd var/kd wt (human TGFβ2): 1
B7: I54V (antibody, V domains shown)
VH: B1 VH with I54V, C56D
VL: B1 VL
notes: GC1008 IgG4 variant

- kd var/kd wt (human TGFβ3): 0.7
- kd var/kd wt (human TGFβ1): 1.1
- kd var/kd wt (human TGFβ2): 1.3
B8: D56H (antibody, V domains shown)
VH: B1 VH with C56H
VL: B1 VL
notes: GC1008 IgG4 variant

- kd var/kd wt (human TGFβ3): 0.9
- kd var/kd wt (human TGFβ1): 1.2
- kd var/kd wt (human TGFβ2): 1.4
B9: D56N (antibody, V domains shown)
VH: B1 VH with C56N
VL: B1 VL
notes: GC1008 IgG4 variant

- kd var/kd wt (human TGFβ3): 2
- kd var/kd wt (human TGFβ1): 1.8
- kd var/kd wt (human TGFβ2): 1.5
B10: I54A (antibody, V domains shown)
VH: B1 VH with I54A, C56D
VL: B1 VL
notes: GC1008 IgG4 variant

- kd var/kd wt (human TGFβ3): 2.1
- kd var/kd wt (human TGFβ2): 1.3
B11: V55W (antibody, V domains shown)
VH: B1 VH with V55W, C56D
VL: B1 VL
notes: GC1008 IgG4 variant

- kd var/kd wt (human TGFβ3): 1.5
- kd var/kd wt (human TGFβ1): 2.3
- kd var/kd wt (human TGFβ2): 1.5
B12: D56F (antibody, V domains shown)
VH: B1 VH with C56F
VL: B1 VL
notes: GC1008 IgG4 variant

- kd var/kd wt (human TGFβ3): 1.1
- kd var/kd wt (human TGFβ1): 1.2
- kd var/kd wt (human TGFβ2): 1.1
B13: I54L (antibody, V domains shown)
VH: B1 VH with I54L, C56D
VL: B1 VL
notes: GC1008 IgG4 variant

- kd var/kd wt (human TGFβ3): 1.6
- kd var/kd wt (human TGFβ1): 1.5
- kd var/kd wt (human TGFβ2): 1.3
B14: I54P (antibody, V domains shown)
VH: B1 VH with I54P, C56D
VL: B1 VL
notes: GC1008 IgG4 variant

- kd var/kd wt (human TGFβ3): 1.8
- kd var/kd wt (human TGFβ2): 1.7
B15: V55I (antibody, V domains shown)
VH: B1 VH with V55I, C56D
VL: B1 VL
notes: GC1008 IgG4 variant

- kd var/kd wt (human TGFβ3): 1.8
- kd var/kd wt (human TGFβ2): 1.6
B16: V55L (antibody, V domains shown)
VH: B1 VH with V55L, C56D
VL: B1 VL
notes: GC1008 IgG4 variant

- kd var/kd wt (human TGFβ3): 2
- kd var/kd wt (human TGFβ2): 1.9
B17: I52F (antibody, V domains shown)
VH: B1 VH with I52F, C56D
VL: B1 VL
notes: GC1008 IgG4 variant

- kd var/kd wt (human TGFβ3): 1.7
- kd var/kd wt (human TGFβ1): 1.5
- kd var/kd wt (human TGFβ2): 1.3
B18: I54M (antibody, V domains shown)
VH: B1 VH with I54M, C56D
VL: B1 VL
notes: GC1008 IgG4 variant

- kd var/kd wt (human TGFβ3): 1.6
- kd var/kd wt (human TGFβ2): 1.5
B19: S30K (antibody, V domains shown)
VH: B1 VH with S30K, C56D
VL: B1 VL
notes: GC1008 IgG4 variant

- kd var/kd wt (human TGFβ3): 1.1
- kd var/kd wt (human TGFβ1): 1.4
- kd var/kd wt (human TGFβ2): 1.5
B20: D56G (antibody, V domains shown)
VH: B1 VH with C56G
VL: B1 VL
notes: GC1008 IgG4 variant

- kd var/kd wt (human TGFβ3): 1.2
- kd var/kd wt (human TGFβ1): 1.3
- kd var/kd wt (human TGFβ2): 1.5
B21: D56T (antibody, V domains shown)
VH: B1 VH with C56T
VL: B1 VL
notes: GC1008 IgG4 variant

- kd var/kd wt (human TGFβ3): 0.7
- kd var/kd wt (human TGFβ1): 1.7
- kd var/kd wt (human TGFβ2): 0.8
B22: E74C (antibody, V domains shown)
VH: B1 VH with C56D, E74C
VL: B1 VL
notes: GC1008 IgG4 variant

- kd var/kd wt (human TGFβ3): 1.6
- kd var/kd wt (human TGFβ1): 2.1
- kd var/kd wt (human TGFβ2): 1.4
B23: I54H (antibody, V domains shown)
VH: B1 VH with I54H, C56D
VL: B1 VL
notes: GC1008 IgG4 variant

- kd var/kd wt (human TGFβ3): 1
- kd var/kd wt (human TGFβ1): 1.1
- kd var/kd wt (human TGFβ2): 1.3
B24: D56S (antibody, V domains shown)
VH: B1 VH with C56S
VL: B1 VL
notes: GC1008 IgG4 variant

- kd var/kd wt (human TGFβ3): 0.7
- kd var/kd wt (human TGFβ1): 1.1
- kd var/kd wt (human TGFβ2): 1.3
B25: D56K (antibody, V domains shown)
VH: B1 VH with C56K
VL: B1 VL
notes: GC1008 IgG4 variant

- kd var/kd wt (human TGFβ3): 1
- kd var/kd wt (human TGFβ1): 1.1
- kd var/kd wt (human TGFβ2): 1.3
B26: D56Q (antibody, V domains shown)
VH: B1 VH with C56Q
VL: B1 VL
notes: GC1008 IgG4 variant

- kd var/kd wt (human TGFβ3): 2
- kd var/kd wt (human TGFβ2): 1.7
B27: V55A (antibody, V domains shown)
VH: B1 VH with V55A, C56D
VL: B1 VL
notes: GC1008 IgG4 variant

- kd var/kd wt (human TGFβ1): 0.8
- kd var/kd wt (human TGFβ2): 0.9
B28: E74T (antibody, V domains shown)
VH: B1 VH with C56D, E74T
VL: B1 VL
notes: GC1008 IgG4 variant

- kd var/kd wt (human TGFβ3): 1.4
- kd var/kd wt (human TGFβ1): 1.6
- kd var/kd wt (human TGFβ2): 1.5
B29: D56I (antibody, V domains shown)
VH: B1 VH with C56I
VL: B1 VL
notes: GC1008 IgG4 variant

- kd var/kd wt (human TGFβ3): 5.1
- kd var/kd wt (human TGFβ1): 4.7
- kd var/kd wt (human TGFβ2): 2.9
B30: L104W (antibody, V domains shown)
VH: B1 VH with C56D, L104W
VL: B1 VL
notes: GC1008 IgG4 variant

- kd var/kd wt (human TGFβ3): 1.2
- kd var/kd wt (human TGFβ1): 0.9
- kd var/kd wt (human TGFβ2): 1.1
B31: I52V (antibody, V domains shown)
VH: B1 VH with I52V, C56D
VL: B1 VL
notes: GC1008 IgG4 variant

- kd var/kd wt (human TGFβ3): 2
- kd var/kd wt (human TGFβ1): 1.9
- kd var/kd wt (human TGFβ2): 1.5
B32: G101Y (antibody, V domains shown)
VH: B1 VH with C56D, G101Y
VL: B1 VL
notes: GC1008 IgG4 variant

- kd var/kd wt (human TGFβ3): 1
- kd var/kd wt (human TGFβ1): 1.3
- kd var/kd wt (human TGFβ2): 1.4
B33: D56L (antibody, V domains shown)
VH: B1 VH with C56L
VL: B1 VL
notes: GC1008 IgG4 variant
